Data from patent US20030203415A1 (published 2003).
Several values for one entry are separate records, joined by “and”; a condition that tells them apart may be missing. Equal entries are not always repeated. One block for each binder: values may come before it. Ends that are not written are not given here. fluorescein = fluorescein label attached through NHS-fluorescein to the ε-amino side group of the C-terminal lysine

Columns and labels:
[1] = target: T1, human serum albumin (HSA) (human, UniProt P02768 25-609); assay: phage ELISA on immobilized HSA
T1 construct: control target

[2] = target: T2, H6NA3 (UniProt P06731 35-144; P06731 499-590, limits assumed); assay: fluorescence anisotropy, direct binding
T2 construct: domain: N domain;domain: A3 domain; recombinant truncated target
T2 sequence: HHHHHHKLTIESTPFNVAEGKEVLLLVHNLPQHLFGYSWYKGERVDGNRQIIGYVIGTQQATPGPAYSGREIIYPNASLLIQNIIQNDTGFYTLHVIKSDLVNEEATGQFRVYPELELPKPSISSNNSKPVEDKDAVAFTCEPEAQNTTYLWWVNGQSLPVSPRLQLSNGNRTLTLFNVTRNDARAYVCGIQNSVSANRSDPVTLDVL
Method: (§1) Dissociation constants were determined using fluorescence anisotropy, through direct binding measurements to either NA-3 or CEA in PBS with 0.01% TWEEN 20. In direct binding assays, the concentration of the fluorescein-labeled peptide is held constant and the concentration of NA3 is varied. In the competition experiment, the concentration of the fluorescein-labeled peptide and the NA3 target are held constant and the concentration of competitor peptide (from Isolate 12-H12) is varied. The change in anisotropy is fit to the appropriate equation via nonlinear regression to obtain the apparent Kd. […] Replicate analyses were run for certain binders and are reported to confirm accuracy and precision of measurements. KD standard error values are calculated from the nonlinear regression (SIGMAPLOT, SPSS Science, Chicago, Ill.).

[3] = target: T3, carcinoembryonic antigen (CEA) (UniProt P06731 35-685, limits assumed); assay: fluorescence anisotropy, direct binding
T3 sequence (looked up): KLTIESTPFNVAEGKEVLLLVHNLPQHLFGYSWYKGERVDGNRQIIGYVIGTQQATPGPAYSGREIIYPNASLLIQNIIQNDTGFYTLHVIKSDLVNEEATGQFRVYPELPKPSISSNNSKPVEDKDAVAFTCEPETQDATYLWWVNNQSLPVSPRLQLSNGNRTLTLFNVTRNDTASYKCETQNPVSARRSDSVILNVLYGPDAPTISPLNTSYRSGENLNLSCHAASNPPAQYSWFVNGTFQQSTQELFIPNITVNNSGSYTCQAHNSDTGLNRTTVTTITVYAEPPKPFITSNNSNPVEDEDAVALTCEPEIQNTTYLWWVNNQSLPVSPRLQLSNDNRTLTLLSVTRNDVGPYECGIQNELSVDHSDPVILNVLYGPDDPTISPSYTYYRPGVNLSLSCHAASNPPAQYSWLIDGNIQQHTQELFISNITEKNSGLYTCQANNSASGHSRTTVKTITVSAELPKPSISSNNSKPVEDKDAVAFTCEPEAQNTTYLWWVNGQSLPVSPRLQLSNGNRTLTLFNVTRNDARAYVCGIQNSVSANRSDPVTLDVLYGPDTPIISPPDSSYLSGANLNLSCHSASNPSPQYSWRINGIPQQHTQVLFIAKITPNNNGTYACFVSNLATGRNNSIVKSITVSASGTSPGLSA
Method: as §1

[4] = target: T2, H6NA3; assay: fluorescence anisotropy, competition with peptide from Isolate 12-H12
Method: as §1

[5] = target: T2, H6NA3; assay: fluorescence anisotropy, competition with peptide from Isolate 12-H12 (replicate)
Method: as §1

[6] = target: T2, H6NA3; assay: fluorescence anisotropy, direct binding; remark: listed apart in the source
[7] = target: T2, H6NA3; assay: fluorescence anisotropy, direct binding; remark: listed apart in the source
Method: (§2) Dissociation constants were determined using fluorescence anisotropy, through direct binding measurements and competition experiments. In direct binding assays, the concentration of the fluorescein-labeled peptide is held constant and the concentration of H6NA3 is varied. In the competition experiment, the concentration of the fluorescein-labeled peptide and the H6NA3 target are held constant and the concentration of a competitor (cT84.66, unlabeled) is varied. The change in anisotropy is fit to the appropriate equation via nonlinear regression to obtain the apparent Kd.

[8] = target: T2, H6NA3; assay: fluorescence anisotropy, competition with unlabeled cT84.66
Method: as §2

[9] = target: T2, H6NA3; assay: fluorescence anisotropy
Method: as §2

[10] = target: T2, H6NA3; assay: fluorescence anisotropy, direct binding; remark: listed apart in the source
[11] = target: T2, H6NA3; assay: fluorescence anisotropy, direct binding; remark: listed apart in the source
Method: as §2
Dissociation constants were determined using fluorescence anisotropy, through direct binding measurements (see Example 6).

[12] = target: T2, H6NA3; assay: fluorescence anisotropy, direct binding (replicate)
Method: as §1

T1 sequence (P02768 25-609 limits assumed): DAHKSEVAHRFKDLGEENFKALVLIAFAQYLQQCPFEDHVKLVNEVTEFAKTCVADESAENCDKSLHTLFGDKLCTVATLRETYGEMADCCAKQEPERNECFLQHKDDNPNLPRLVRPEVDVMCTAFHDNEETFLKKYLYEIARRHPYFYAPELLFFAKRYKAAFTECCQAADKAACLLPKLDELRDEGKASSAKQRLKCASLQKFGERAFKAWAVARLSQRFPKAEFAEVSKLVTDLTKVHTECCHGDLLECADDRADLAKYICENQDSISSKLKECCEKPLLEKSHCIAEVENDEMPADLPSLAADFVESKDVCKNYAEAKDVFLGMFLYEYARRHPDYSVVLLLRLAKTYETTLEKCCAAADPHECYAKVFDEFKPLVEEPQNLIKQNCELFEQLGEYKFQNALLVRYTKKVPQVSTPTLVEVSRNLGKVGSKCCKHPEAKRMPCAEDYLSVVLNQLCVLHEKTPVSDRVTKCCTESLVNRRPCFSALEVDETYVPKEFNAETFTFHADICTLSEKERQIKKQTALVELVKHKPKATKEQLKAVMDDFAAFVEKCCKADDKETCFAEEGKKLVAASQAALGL

binding result [1]: no binding
Binder: RYCEFFPWSLHCGRP (also called TN10/9 Isolate B10) [B10]

binding result [1]: no binding
Binder: DWVCENKKDQWTCNLL (not fully specified (bridges); cysteine pairing not given here, also called TN10/9 Isolate A07) [AB-A07]

binding result [1]: no binding
Binder: NWVCNLFKNQWFCNSY (also called TN10/9 Isolate G08) [FX-G08]

binding result [1]: no binding
Binder: NWDCMFGAEGWACSPW (not fully specified (bridges); cysteine pairing not given here) [TN10/9-E01]

Kd [9]: 7000 nM
Kd [7]: 6900 nM
Kd [8]: 5300 nM
B7: P-E01 (peptide)
peptide: SNWDCMFGAEGWACSPWAPGGEGGGSK(fluorescein)-NH2
modifications: not fully specified (bridges); printed as SNWDCMFGAEGWACSPWAPGGEGGGSK-CONH2; cysteine pairing not given here; also: fluorescein on C-terminal Lys ε-amino in labelled aliquots
notes: synthetic 27-mer

Kd [7]: 1900 nM
B9: P-G08 (peptide)
peptide: SNWVCNLFKNQWFCNSYAPGGEGGGSK(fluorescein)-NH2
modifications: not fully specified (bridges); printed as SNWVCNLFKNQWFCNSYAPGGEGGGSK-CONH2; cysteine pairing not given here; also: fluorescein on C-terminal Lys ε-amino in labelled aliquots
notes: synthetic 27-mer; also called Isolate G08 peptide

binding result [1]: no binding
Binder: NWRCKLFPRYPYCSSW (also called TN10/9 Isolate G01) [G01]

Kd [7]: 6000 nM
Kd [8]: 1000 nM
B10: P-B09 (peptide)
peptide: SDWVCELTTGGYVCQPLAPGGEGGGSK(fluorescein)-NH2
modifications: not fully specified (bridges); printed as SDWVCELTTGGYVCQPLAPGGEGGGSK-CONH2; cysteine pairing not given here; also: fluorescein on C-terminal Lys ε-amino in labelled aliquots
notes: synthetic 27-mer

binding result [1]: no binding
Binder: DWVCNFDQGLAHCFPS (not fully specified (bridges); cysteine pairing not given here) [TN10/9-D04]

binding result [1]: no binding
Binder: NWFCEMIGRQWGCVPS [TN10/9-F11]

The next lines start with the binder.

B1: 315A-17-G08 synthetic peptide (peptide)
peptide: DWVCEFIKSQWFCNVLAPGGEGGGSK(fluorescein)-NH2
modifications: not fully specified (bridges); cysteine pairing not given here; also: fluorescein on C-terminal Lys ε-amino in labelled aliquots
notes: synthetic
Kd [2]: 270 nM
Kd [3]: 1600 nM
Kd [4]: 160 nM
Kd [5]: 160 nM

B2: 304A-14-A12 synthetic peptide (peptide, part only; not given: C-terminal lysine extension, part only)
peptide, part: DWVCNLFKNQWFCDTL
modifications: not fully specified (C-terminus, bridges); cysteine pairing not given here; also: fluorescein on ε-amino of C-terminal lysine, no C-terminal K in given chain
Kd [6]: 640 nM

B3: 315A-17-B12 synthetic peptide (peptide)
peptide: DWVCEWLKPQWYCNSLAPGGEGGGSK(fluorescein)-NH2
modifications: not fully specified (bridges); cysteine pairing not given here; also: fluorescein on C-terminal Lys ε-amino in labelled aliquots
notes: synthetic
Kd [2]: 1800 nM
binding result [3]: no binding
Kd [4]: 650 nM

B4: P-A07 (peptide)
peptide: SDWVCENKKDQWTCNLLAPGGEGGGSK(fluorescein)-NH2
modifications: not fully specified (bridges); printed as SDWVCENKKDQWTCNLLAPGGEGGGSK-CONH2; cysteine pairing not given here; also: fluorescein on C-terminal Lys ε-amino in labelled aliquots
notes: synthetic 27-mer
Kd [7]: 5900 nM
Kd [8]: 3600 nM

B5: 315A-18-E01 synthetic peptide (peptide)
peptide: DWVCEIVKNQWICNPLAPGGEGGGSK(fluorescein)-NH2
modifications: not fully specified (bridges); cysteine pairing not given here; also: fluorescein on C-terminal Lys ε-amino in labelled aliquots
notes: synthetic
Kd [2]: 870 nM
Kd [4]: 230 nM
Kd [5]: 490 nM and 170 nM

B6: Hybrid H12/A12 (peptide, part only; not given: C-terminal lysine extension, part only)
peptide, part: DWVCEYFKNQWFCDTL
modifications: not fully specified (C-terminus, bridges); cysteine pairing not given here; also: fluorescein on ε-amino of C-terminal lysine, no C-terminal K in given chain
Kd [6]: 2800 nM

B8: 315A-18-E02 synthetic peptide (peptide)
peptide: DWVCEFFKDQWFCNILAPGGEGGGSK(fluorescein)-NH2
modifications: not fully specified (bridges); cysteine pairing not given here; also: fluorescein on C-terminal Lys ε-amino in labelled aliquots
notes: synthetic
Kd [2]: 380 nM
Kd [3]: 2600 nM
Kd [4]: 310 nM
Kd [5]: 290 nM and 220 nM and 140 nM

B11: 315A-17-B01 synthetic peptide (peptide)
peptide: DWVCEWLKMQWACNILAPGGEGGGSK(fluorescein)-NH2
modifications: not fully specified (bridges); cysteine pairing not given here; also: fluorescein on C-terminal Lys ε-amino in labelled aliquots
notes: synthetic
Kd [2]: 950 nM
Kd [4]: 900 nM
Kd [5]: 1200 nM

B12: 304A-12-H12 synthetic peptide (peptide)
peptide: DWVCEYFKNQWFCNVLAPGGEGGGSK-NH2
modifications: not fully specified (residue 26, bridges); cysteine pairing not given here; also: fluorescein only on labelled aliquots
notes: synthetic; also called DX306
fold increase in affinity compared to the Isolate G08 peptide [10]: 8 fold
Kd [11]: 240 nM
Kd [2]: 300 nM
Kd [3]: 3700 nM
Kd [12]: 220 nM
Kd [4]: 340 nM
Kd [5]: 240 nM
